Experimental data: publication PMC7862258

Columns and labels:
[1] = anti-FLAG western blot of conditioned media, HEK293A; settings: glycan lost; for expression_or_secretion, other: relative secretion, % of N249Q F3: control: same variant with N249 glycan (normalised to WT F3), arms normalised to N249Q F3
[2] = anti-FLAG western blot of cell lysate (intracellular level), HEK293A; settings: glycan lost; control: WT F3

B1: fibulin-3 (F3): N249Q (protein)
parent chain: MLKALFLTMLTLALVKSQDTEETITYTQCTDGYEWDPVRQQCKDIDECDIVPDACKGGMKCVNHYGGYLCLPKTAQIIVNNEQPQQETQPAEGTSGATTGVVAASSMATSGVLPGGGFVASAAAVAGPEMQTGRNNFVIRRNPADPQRIPSNPSHRIQCAAGYEQSEHNVCQDIDECTAGTHNCRADQVCINLRGSFACQCPPGYQKRGEQCVDIDECTIPPYCHQRCVNTPGSFYCQCSPGFQLAANNYTCVDINECDASNQCAQQCYNILGSFICQCNQGYELSSDRLNCEDIDECRTSSYLCQYQCVNEPGKFSCMCPQGYQVVRSRTCQDINECETTNECREDEMCWNYHGGFRCYPRNPCQDPYILTPENRCVCPVSNAMCRELPQSIVYKYMSIRSDRSVPSDIFQIQATTIYANTINTFRIKSGNENGEFYLRQTSPVSAMLVLVKSLSGPREHIVDLEMLTVSSIGTFRTSSVLRLTIIVGPFSF
In the case of B1, the “expression_or_secretion, percent_of_wt” value ([1]; control: WT F3) is reported as “no change” and the “expression_or_secretion, percent_of_wt” value [2] is reported as “no change”.

B2: fibulin-3 (F3): I220F/N249Q (protein)
parent chain: B1 parent chain
With B2 the “expression_or_secretion, other: relative secretion, % of N249Q F3” value [1] was “no change”.

B3: fibulin-3 (F3): N249Q/R387Q (protein)
parent chain: B1 parent chain
For B3, the “expression_or_secretion, other: relative secretion, % of N249Q F3” value [1] was “no change”.

B4: fibulin-3 (F3): D49A/N249Q (protein)
parent chain: B1 parent chain
With B4 the “expression_or_secretion, other: relative secretion, % of N249Q F3” value [1] was “no change”.

B5: fibulin-3 (F3): R140W/N249Q (protein)
parent chain: B1 parent chain
In the case of B5, the “expression_or_secretion, other: relative secretion, % of N249Q F3” value [1] is reported as “no change”.
